Source: FireProtDB (doi:10.1021/bi00197a024)

Settings: Saccharomyces cerevisiae (strain ATCC 204508 / S288c), Thermal, DSC, Sodium phosphate 0.1 M, reversible: yes

Cytochrome c isoform 1 wild type, P00044, sequence (P00044 whole entry, canonical isoform): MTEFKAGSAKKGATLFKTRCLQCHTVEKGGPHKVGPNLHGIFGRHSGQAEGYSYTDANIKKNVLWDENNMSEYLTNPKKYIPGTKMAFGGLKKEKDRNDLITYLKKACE
Cytochrome c isoform 1 C108A, P00044, sequence (P00044 whole entry C108A, canonical isoform): as the sequence (P00044 whole entry, canonical isoform) above, with C108A counted along it

Row | Substance | Tm (pH 5, structure 1YCC) [°C] | unfolding enthalpy (calorimetric) (pH 5, structure 1YCC) [kcal/mol] | unfolding enthalpy (van 't Hoff) (pH 5, structure 1YCC) [kcal/mol] | Tm (pH 6, structure 1YCC) [°C] | unfolding enthalpy (calorimetric) (pH 6, structure 1YCC) [kcal/mol] | unfolding enthalpy (van 't Hoff) (pH 6, structure 1YCC) [kcal/mol] | Tm (pH 5) [°C] | unfolding enthalpy (calorimetric) (pH 5) [kcal/mol] | unfolding enthalpy (van 't Hoff) (pH 5) [kcal/mol] | Tm (pH 6) [°C] | unfolding enthalpy (calorimetric) (pH 6) [kcal/mol] | unfolding enthalpy (van 't Hoff) (pH 6) [kcal/mol]
1 | Cytochrome c isoform 1 C108A, P00044 | 55.5 | 68.9 | 99.2 | 56.2 | 69.9 | 104 | – | – | – | – | – | –
2 | Cytochrome c isoform 1 wild type, P00044 | – | – | – | – | – | – | 47.4 | 58.3 | 82.2 | 50.7 | 64.5 | 92.2
